Source: patent US12043827B2, “Compositions, systems, and methods for base diversification” (Pairwise Plants Services, Inc., priority 2020, dated 2024)
“Also recorded” adds a separate entry of the source.

How the values were obtained:
Format in all cases: cell-based
APE1 = biological target: T1, APE1 (Homo sapiens, UniProt P27695); assay: APE1 inhibitor effect on base diversification and indels, AID or pmCDA1 fused to Cas9 nickase (D10A), HTS in HEK293T cells; settings: 100 μM and 200 μM, 3 d
T1 construct: endogenous in cells; host or cells: HEK293T
Protocol: APE1 was inhibited by using CRT0044876 (Scheme 1), which is a potent and well-known APE1 inhibitor.
To ascertain whether this compound improves base diversification profile, HEK293T cells were treated with AID or pmCDA1 fused to Cas9 nickase (D10A) in the presence of CRT0044876. After 3 d, the cells were harvested and analyzed through high-throughput sequencing (HTS).

[1] = system: Sites 1-4 (SEQ ID NO:131-134); assay: Fusion architecture for adenine diversifiers (ABE8.20m N- or C-terminal glycosylase fusions), HTS in HEK293T cells; settings: four guide RNAs, 3 days, FIG. 9
Protocol: Several glycosylase domains were fused to either the N-terminus or C-terminus of ABE8.20m (SEQ ID NO:57). For the N-terminal fusions to ABE8.20m, the deaminase was between the glycosylase domain and CRISPR-Cas effector protein, and, for the C-terminal fusions to ABE8.20m, the CRISPR-Cas effector protein was between the glycosylase domain and deaminase. Three putative inosine glycosylases were tested, which are: hMPG, a methylpurine glycosylase (MPG) from Homo sapiens (SEQ ID NO:84, UniProtKB—P29372); mMPG from Mus musculus (SEQ ID NO:83, UniProtKB—Q04841); and SpThp1, a known uracil DNA glycosylase that also has activity towards inosine, from Schizosaccharomyces pombe (SEQ ID NO:79, UniProtKB—O59825) (Alseth et al. Nucleic Acids Research 2005, 33(3) 1123-1131).
The following plasmids were transfected into HEK293T cells: a plasmid encoding ABE8.20m or a fusion protein including ABE8.20m fused to one of the above inosine glycosylases, and a plasmid encoding a guide RNA. […] Four guide RNAs were tested corresponding to the following four target nucleic acids (i.e., sites): Site 1: […] (SEQ ID NO:131), Site 2: […] (SEQ ID NO:132), Site 3: […] (SEQ ID NO:133), and Site 4: […] (SEQ ID NO:134). After three days, the editing efficiency was measured by high throughput sequencing of targeted loci.

[2] = system: several genomic sites in HEK293T cells (target nucleic acid of SEQ ID NO:132); assay: Deaminase screen for base diversification, MCP-deaminase recruited to Cas9 nickase (D10A), HTS in HEK293T cells; settings: MCP fusion recruited to Cas9 nickase (D10A) by 2xMS2 gRNA, no UGI, FIG. 4
Protocol: They were fused to MCP (MS2 […]) at the N-terminus, and recruited towards Cas9 nickase (D10A) by using gRNA fused to 2×MS2 hairpins. They were assayed against several genomic sites in HEK293T cells. Base conversion profiles were analyzed by high-throughput sequencing and the results are shown in FIG. 4 for the target nucleic acid of SEQ ID NO:132.
AP endonuclease I (APE1) is an enzyme within the base excision repair pathway that cleaves the phosphodiester bond at the abasic site, generating a nick in the base-edited strand. […] In constructs lacking UGI, base diversification is usually accompanied with indels. For example, in all target sites described above, about 5-20% of products contain indels, which lowers the efficiency of base diversification (FIG. 5).

endogenous loci = assay: Transversion mutations from adenine: ABE7.10 with inosine glycosylases (fusion or in trans), HTS in HEK293T cells; settings: fusion constructs and co-transfected constructs with ABE7.10, FIGS. 7A-7B and 8A-8B
Excerpt: The experiment was designed to generate transversion mutations from adenines by promoting inosines to undergo the same cellular DNA repair pathways that generate transversion mutations during translesion-bypass polymerization in cytosine base editing. While not wishing to be bound to any particular theory, it was hypothesized that the key step was to facilitate the glycosylation of inosines generated during adenine base editing. It was hypothesized that once glycosylated, the resulting abasic site can be a substrate for translesion-bypass repair and that this would lead to transversion mutations. Exogenous inosine glycosylases were provided along with ABE to promote inosine glycosylation.
Several inosine glycosylases were screened in HEK293T cells and it was determined whether they were capable of acting on inosines generated by ABE. If inosine is converted into an abasic site, and subsequently repaired through translesion-bypass polymerization, transversion mutations can be generated from adenines.
Five different glycosylases from various species were selected for testing. The following genes were codon-optimized and cloned into a mammalian expression vector, either as unfused gene, or as a C-terminal fusion to ABE7.10 (species source in parenthesis); hMPG (Homo sapiens) having an amino acid sequence of SEQ ID NO:84, mMPG (Mus musculus) having an amino acid sequence of SEQ ID NO:83, rMPG (Rattus norvegicus) having an amino acid sequence of SEQ ID NO:80, SpThp1 (Schizosaccharomyces pombe) having an amino acid sequence of SEQ ID NO:79, MaHDG (Methanosarcina acetivorans) having an amino acid sequence of SEQ ID NO:81, and MbHDG (Methanosarcina barkeri) having an amino acid sequence of SEQ ID NO:82. […] The HEK293T cells were transfected with a plasmid encoding gRNA targeting endogenous loci and either the fusion plasmid or a mixture of plasmids expressing ABE7.10 and the above inosine glycosylases. After 3 days, high-throughput sequencing was used to determine the editing result of targeted adenines. Mock transfection (using pUC19) was used to set baseline editing. All conditions that used ABE7.10 generated 10-20% guanine transition, as expected.

[3] = system: Sites 1-5 (SEQ ID NO:131, 134, 133, 140, 132); assay: Inosine glycosylase homolog testing, C-terminal fusions to ABE8e; settings: C-terminal fusion to ABE8e, Sites 1-5, FIG. 16

T1 sequence (P27695 whole entry, the tested form may be a part): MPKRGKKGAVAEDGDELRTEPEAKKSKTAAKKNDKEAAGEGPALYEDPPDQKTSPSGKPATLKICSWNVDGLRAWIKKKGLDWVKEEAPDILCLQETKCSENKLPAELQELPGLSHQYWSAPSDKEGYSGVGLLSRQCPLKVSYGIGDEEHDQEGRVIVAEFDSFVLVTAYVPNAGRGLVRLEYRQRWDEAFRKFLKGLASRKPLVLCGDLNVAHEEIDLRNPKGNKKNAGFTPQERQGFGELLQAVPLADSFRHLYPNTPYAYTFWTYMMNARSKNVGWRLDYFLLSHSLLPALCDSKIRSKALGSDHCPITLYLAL

| Molecule | generation of C and T bases from adenine over background (endogenous loci) | adenine to C or T editing activity of adenine diversifiers [3] | other results |
| --- | --- | --- | --- |
| O=C(O)c1cc2cccc([N+](=O)[O-])c2[nH]1 [CRT0044876] | – | – | base diversification rate (APE1; FIGS. 6A and 6C): some decrease in base diversification rate was also observed; amount of indel generated (APE1; multiple target sites, FIGS. 6B and 6D): significant decrease in the amount of indel generated across multiple target sites; also recorded: reduces the rate of indel mutations |
| ABE8.20m: adenine base editor, SEQ ID NO:57, without glycosylase domain | – | – | A to C or T change of target adenine [1]: negligible A to C or T change |
| APOBEC3A: cytosine deaminase fused to MCP, recruited towards Cas9 nickase (D10A) by gRNA with 2×MS2 hairpins | – | – | conversion of C into G, T, and A within the base editing window [2]: robustly converts C into G, T, and A nucleotides within the base editing window |
| hMPG: methylpurine glycosylase from Homo sapiens, SEQ ID NO:84, UniProtKB P29372 | significant amount of C and T bases over background | – | – |
| ClMPG: truncated MPG of Canis lupus, SEQ ID NO:87, fused to C-terminus of ABE8e (protein, listed as Canis lupus) KSHSAQLGSDFFDQPAVALARAFLGQVLVRRLDDGTELRGRIVETEAYLGPEDEAAHSRGGRQTPRNRGMFMKPGTLYVYIIYGMYFCLNVSSQGDGACVLLRALEPLGGLETMRQLRSTLRKGTTGRALKDRELCSGPSKLCQALAIDKSFDQRDLAKDRAVWLERSPPGPSEPAVVAAARVGIGHAGEWAQKPLRFYLRGSPWVSVVDRAAEQNAQA | – | displayed the highest activity | – |
| mMPG: methylpurine glycosylase from Mus musculus, SEQ ID NO:83, UniProtKB Q04841 (protein, listed as Mus musculus) MPARGGSARPGRGALKPVSVTLLPDTEQPPFLGRARRPGNARAGSLVTGYHEVGQMPAPLSRKIGQKKQRLADSEQQQTPKERLLSTPGLRRSIYFSSPEDHSGRLGPEFFDQPAVTLARAFLGQVLVRRLADGTELRGRIVETEAYLGPEDEAAHSRGGRQTPRNRGMFMKPGTLYVYLIYGMYFCLNVSSQGAGACVLLRALEPLEGLETMRQLRNSLRKSTVGRSLKDRELCSGPSKLCQALAIDKSFDQRDLAQDDAVWLEHGPLESSSPAVVVAAARIGIGHAGEWTQKPLRFYVQGSPWVSVVDRVAEQMDQPQQTACSEGLLIVQK | significant amount of C and T bases over background | – | – |
| CgMPG: truncated MPG of Cricetulus griseus, SEQ ID NO:86, fused to C-terminus of ABE8e (protein, listed as Cricetulus griseus) EDHPARLGPEFFDQPAVTLARAFLGQVLVRRLADGTELRGRIVETEAYLGPEDEAAHSRGGRQTPRNRGMFMKPGTLYVYIIYGMYFCLNVSSQGAGACVLLRALEPLEGLDTMRQLRSTLRKSTVSRTLKDRELCSGPSKLCQALAIDKSFDQRDLTQDEAVWLEHGPLATGSPAVVAAARIGIGHAGEWTQKPLRFYVQGSPWVSVVDRVAEQMCQPQQTA | – | displayed the highest activity | – |
| SpThp1: uracil DNA glycosylase with activity towards inosine from Schizosaccharomyces pombe, SEQ ID NO:79 (protein, Schizosaccharomyces pombe) MNDIETRDTGTKNDNSSEFNLSVKSHKRKRSFDDENLELEESREETSGGILKKAKTQSFSESLERFRFAHAGSNNEYRKTDVVKNSDTDNGLLKSAVETITLENGLRNRRVNVTKKSTLKASVKKSTLKKKNEVDPALLQGVPDYICENPYAIIVGLNPGITSSLKGHAFASPSNRFWKMLNKSKLLEGNAEFTYLNDKDLPAHGLGITNLCARPSSSGADLRKEEMQDGARILYEKVKRYRPQVGLFISGKGIWEEMYKMLTGKKLPKTFVFGWQPEKFGDANVFVGISSSGRAAGYSDEKKQNLWNLFAEEVNRHREIVKHAV | significant amount of C and T bases over background | – | – |
| APOBEC1: cytosine deaminase fused to MCP, recruited towards Cas9 nickase (D10A) by gRNA with 2×MS2 hairpins (protein, listed as Rattus norvegicus) SSETGPVAVDPTLRRRIEPHEFEVFFDPRELRKETCLLYEINWGGRHSIWRHTSQNTNKHVEVNFIEKFTTERYFCPNTRCSITWFLSWSPCGECSRAITEFLSRYPHVTLFIYIARLYHHADPRNRQGLRDLISSGVTIQIMTEQESGYCWRNFVNYSPSNEAHWPRYPHLWVRLYVLELYCIILGLPPCLNILRRKQPQLTFFTIALQSCHYQRLPPHILWATGLK | – | – | conversion of C into G, T, and A within the base editing window [2]: robustly converts C into G, T, and A nucleotides within the base editing window |
| CjMPG: truncated MPG of Callithrix jacchus, SEQ ID NO:88, fused to C-terminus of ABE8e (protein, listed as Callithrix jacchus) KGYLTRLGSEFFDQPAVTLAQAFLGQVLVRRLPNGTELRGRIVETEAYLGPEDEAAHSRGGRQTPRNRGMFMKPGTLYVYIIYGMYFCMNISSQGDGACVLLRALEPLEGLETMRQLRSTLRKGTASRVLKDRELCSGPSKLCQALAIDKSFDQRDLAQDEAIWLEHGPLEPSGPTVVAAARVGIGYAGEWSRKPLRFYVRGSPWVSVVDRVAEQDAQA | – | displayed the highest activity | – |
